Test results reported in US11278600B2, “Human alpha-galactosidase variants” (Codexis, Inc., priority 2014, dated 2022).

How the values were obtained:
Format in all cases: biochemical
[1] = HTP-analysis of yeast culture supernatants, no challenge (MUGal hydrolysis); conditions: activity of the variant/activity of Rd4BB (SEQ ID NO: 15)
Outline: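 Activity read as 4-methylumbelliferyl α-D-galactopyranoside hydrolysis: fluorescence (355/448 nm) after sodium carbonate stop, following 30-180 min at 37° C with 2 mM MUGal stock at pH 4.6–4.8. Enzyme source is unchallenged culture supernatant of INVSc1 yeast expressing GLA variants, grown 66-84 h at 30° C.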

[2] = HTP-analysis of supernatants pretreated with acid (MUGal hydrolysis); conditions: activity of the variant/activity of Rd4BB (SEQ ID NO: 15); challenge at pH 3.7
Outline: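 Fluorescence of MUGal hydrolysis (Ex. 355 nm, Em. 448 nm) is read after sodium carbonate quench. The enzyme source is INVSc1 yeast culture supernatant, first exposed to pH 3.3-4.3 McIlvaine buffer at 37° C. for 1-3 h, then reacted at pH 4.8 for 30-180 minutes.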

[3] = HTP-analysis of supernatants pretreated with base (MUGal hydrolysis); conditions: activity of the variant/activity of Rd4BB (SEQ ID NO: 15); challenge at pH 9.65
Outline: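 GLA variants were secreted by transformed INVSc1 yeast grown 66-84 h at 30° C. Supernatants were exposed to neutral-to-basic buffers (pH 7.0-9.7) at 37° C for 1-18 h, then assayed with MUGal in acidic citrate/McIlvaine buffer, with fluorescence read after quenching.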

| Molecule | Relative Activity of GLA Variants After No Challenge (NC) [1] | Relative Activity of GLA Variants After Challenge at pH 3.7 [2] | Relative Activity of GLA Variants After Challenge at pH 9.65 [3] |
| --- | --- | --- | --- |
| 462 (protein, Synthetic Polypeptide sequence of Variant No. 462 of mature Human GLA) LDNGLARTPTMGWLHWERFMCNLDCQEEPDSCISEKLFMEMAERMVSEGWKDAGYEYLCIDDCWMAPQRDSEGRLQADPQRFPHGIRQLANYVHSKGLKLGIYADVGNKTCAGFPGSFGYYDIDAQTFADWGVDLLKFDGCYCDSLENLADGYKHMSLALNRTGRSIVYSCEWPLYMWPFQKPNYTEIRQYCNHWRNFADIDDSWKSIKSILDWTSRNQERIVDVAGPGGWNDPDMLVIGNFGLSWDQQVTQMALWAIMAAPLFMSNDLRHISPQAKALLQDKDVIAINQDPLGKQGYQLRKGDNFEVWERPLSGDAWAVAIINRQEIGGPRSYTIPVASLGKGVACNPACFITQLLPVKRQLGFYNWTSRLKSHINPTGTVLLLLENTMQMSLKDLL | + (0.5 to 1.5 relative activity over Rd4BB (SEQ ID NO: 15)) | + (0.5 to 1.5 relative activity over Rd4BB (SEQ ID NO: 15)) | + (0.5 to 1.5 relative activity over Rd4BB (SEQ ID NO: 15)) |
| 466 (protein, Synthetic Polypeptide sequence of Variant No. 466 of mature Human GLA) LDNGLARTPTMGWLHWERFMCNLDCQEEPDSCISEKLFMEMAERMVSEGWKDAGYEYLCIDDCWMAPQRDSEGRLQADPQRFPHGIRQLANYVHSKGLKLGIYADVGNKTCAGFPGSFGYYDIDAQTFADWGVDLLKFDGCYCDSLENLADGYKHMSLALNRTGRSIVYSCEWPLYMWPFQKPNYTEIRQYCNHWRNFADIDDSWKSIKSILDWTSRNQERIVDVAGPGGWNDPDMLVIGNFGLSWDQQVTQMALWAIMAAPLFMSNDLRHISPQAKALLQDKDVIAINQDPLGKQGYQLRKGDNFEVWERPLSGDAWAVAIINRQEIGGPRSYTIPVASLGKGVACNPACFITQLLPVKRQLGFYNWTSRLKSHINPTGTVLLQLENTMQESLKDLL | + (0.5 to 1.5 relative activity over Rd4BB (SEQ ID NO: 15)) | + (0.5 to 1.5 relative activity over Rd4BB (SEQ ID NO: 15)) | + (0.5 to 1.5 relative activity over Rd4BB (SEQ ID NO: 15)) |
| 468 (protein, Synthetic Polypeptide sequence of Variant No. 468 of mature Human GLA) LDNGLARTPTMGWLHWERFMCNLDCQEEPDSCISEKLFMEMAERMVSEGWKDAGYEYLCIDDCWMAPQRDSEGRLQADPQRFPHGIRQLANYVHSKGLKLGIYADVGNKTCAGFPGSFGYYDIDAQTFADWGVDLLKFDGCYCDSLENLADGYKHMSLALNRTGRSIVYSCEWPLYMWPFQKPNYTEIRQYCNHWRNFADIDDSWKSIKSILDWTSRNQERIVDVAGPGGWNDPDMLVIGNFGLSWDQQVTQMALWAIMAAPLFMSNDLRHISPQAKALLQDKDVIAINQDPLGKQGYQLRKGDNFEVWERPLSGDAWAVAIINRQEIGGPRSYTIPVASLGKGVACNPACFITQLLPVKRQLGFYNWTSRLKSHINPTGTVLLQLENQMQMSLKDLL | + (0.5 to 1.5 relative activity over Rd4BB (SEQ ID NO: 15)) | + (0.5 to 1.5 relative activity over Rd4BB (SEQ ID NO: 15)) | + (0.5 to 1.5 relative activity over Rd4BB (SEQ ID NO: 15)) |
| 469 (protein, Synthetic Polypeptide sequence of Variant No. 469 of mature Human GLA) LDNGLARTPTMGWLHWERFMCNLDCQEEPDSCISEKLFMEMAERMVSEGWKDAGYEYLCIDDCWMAPQRDSEGRLQADPQRFPHGIRQLANYVHSKGLKLGIYADVGNKTCAGFPGSFGYYDIDAQTFADWGVDLLKFDGCYCDSLENLADGYKHMSLALNRTGRSIVYSCEWPLYMWPFQKPNYTEIRQYCNHWRNFADIDDSWKSIKSILDWTSRNQERIVDVAGPGGWNDPDMLVIGNFGLSWDQQVTQMALWAIMAAPLFMSNDLRHISPQAKALLQDKDVIAINQDPLGKQGYQLRKGDNFEVWERPLSGDAWAVAIINRQEIGGPRSYTIPVASLGKGVACNPACFITQLLPVKRQLGFYNWTSRLKSHINPTGTVLLILENTMQMSLKDLL | + (0.5 to 1.5 relative activity over Rd4BB (SEQ ID NO: 15)) | + (0.5 to 1.5 relative activity over Rd4BB (SEQ ID NO: 15)) | + (0.5 to 1.5 relative activity over Rd4BB (SEQ ID NO: 15)) |
| 467 (protein, Synthetic Polypeptide sequence of Variant No. 467 of mature Human GLA) LDNGLARTPTMGWLHWERFMCNLDCQEEPDSCISEKLFMEMAERMVSEGWKDAGYEYLCIDDCWMAPQRDSEGRLQADPQRFPHGIRQLANYVHSKGLKLGIYADVGNKTCAGFPGSFGYYDIDAQTFADWGVDLLKFDGCYCDSLENLADGYKHMSLALNRTGRSIVYSCEWPLYMWPFQKPNYTEIRQYCNHWRNFADIDDSWKSIKSILDWTSRNQERIVDVAGPGGWNDPDMLVIGNFGLSWDQQVTQMALWAIMAAPLFMSNDLRHISPQAKALLQDKDVIAINQDPLGKQGYQLRKGDNFEVWERPLSGDAWAVAIINRQEIGGPRSYTIPVASLGKGVACNPACFITQLLPVKRQLGFYNWTSRLKSHINPTGTVLLQLENSMQMSLKDLL | + (0.5 to 1.5 relative activity over Rd4BB (SEQ ID NO: 15)) | + (0.5 to 1.5 relative activity over Rd4BB (SEQ ID NO: 15)) | + (0.5 to 1.5 relative activity over Rd4BB (SEQ ID NO: 15)) |
| 465 (protein, Synthetic Polypeptide sequence of Variant No. 465 of mature Human GLA) LDNGLARTPTMGWLHWERFMCNLDCQEEPDSCISEKLFMEMAERMVSEGWKDAGYEYLCIDDCWMAPQRDSEGRLQADPQRFPHGIRQLANYVHSKGLKLGIYADVGNKTCAGFPGSFGYYDIDAQTFADWGVDLLKFDGCYCDSLENLADGYKHMSLALNRTGRSIVYSCEWPLYMWPFQKPNYTEIRQYCNHWRNFADIDDSWKSIKSILDWTSRNQERIVDVAGPGGWNDPDMLVIGNFGLSWDQQVTQMALWAIMAAPLFMSNDLRHISPQAKALLQDKDVIAINQDPLGKQGYQLRKGDNFEVWERPLSGDAWAVAIINRQEIGGPRSYTIPVASLGKGVACNPACFITQLLPVKRQLGFYNWTSRLKSHINPTGTVLLQLENTQQMSLKDLL | + (0.5 to 1.5 relative activity over Rd4BB (SEQ ID NO: 15)) | + (0.5 to 1.5 relative activity over Rd4BB (SEQ ID NO: 15)) | + (0.5 to 1.5 relative activity over Rd4BB (SEQ ID NO: 15)) |
| 368 (protein, Synthetic Polypeptide sequence of Variant No. 368 of mature Human GLA) LDNGLARTPTMGWLHWERFMCNLDCQEEPDSCISEKLFMEMAEAMVSEGWKDAGYEYLCIDDCWMAPQRDSEGRLQADPQRFPHGIRQLANYVHSKGLKLGIYADVGNKTCAGFPGSFGYYDIDAQTFADWGVDLLKFDGCYCDSLENLADGYKHMSLALNRTGRSIVYSCEWPLYMWPFQKPNYTEIRQYCNHWRNFADIDDSWKSIKSILDWTSRNQERIVDVAGPGGWNDPDMLVIGNFGLSWDQQVTQMALWAIMAAPLFMSNDLRHISPQAKALLQDKDVIAINQDPLGKQGYQLRKGDNFEVWERPLSGDAWAVAIINRQEIGGPRSYTIPVASLGKGVACNPACFITQLLPVKRQLGFYNWTSRLKSHINPTGTVLLQLENTMQMSLKDLL | + (0.5 to 1.5 relative activity over Rd4BB (SEQ ID NO: 15)) | + (0.5 to 1.5 relative activity over Rd4BB (SEQ ID NO: 15)) | + (0.5 to 1.5 relative activity over Rd4BB (SEQ ID NO: 15)) |
| 463 (protein, Synthetic Polypeptide sequence of Variant No. 463 of mature Human GLA) LDNGLARTPTMGWLHWERFMCNLDCQEEPDSCISEKLFMEMAERMVSEGWKDAGYEYLCIDDCWMAPQRDSEGRLQADPQRFPHGIRQLANYVHSKGLKLGIYADVGNKTCAGFPGSFGYYDIDAQTFADWGVDLLKFDGCYCDSLENLADGYKHMSLALNRTGRSIVYSCEWPLYMWPFQKPNYTEIRQYCNHWRNFADIDDSWKSIKSILDWTSRNQERIVDVAGPGGWNDPDMLVIGNFGLSWDQQVTQMALWAIMAAPLFMSNDLRHISPQAKALLQDKDVIAINQDPLGKQGYQLRKGDNFEVWERPLSGDAWAVAIINRQEIGGPRSYTIPVASLGKGVACNPACFITQLLPVKRQLGFYNWTSRLKSHINPTGTVLLQLENTTQMSLKDLL | + (0.5 to 1.5 relative activity over Rd4BB (SEQ ID NO: 15)) | + (0.5 to 1.5 relative activity over Rd4BB (SEQ ID NO: 15)) | + (0.5 to 1.5 relative activity over Rd4BB (SEQ ID NO: 15)) |
